From publication PMC7235819, “Advanced Resistance Studies Identify Two Discrete Mechanisms in Staphylococcus aureus to Overcome Antibacterial Compounds that Target Biotin Protein Ligase” (Antibiotics, 2020) come the findings set out here.

The test system of data set [1] is O=C(O)CCCC[C@@H]1SC[C@@H]2NC(=O)N[C@@H]21. The data set can be described thus: purified protein. Particulars: MgATP biotin-binding pocket (biotin-binding loop residues […]).
The test system of data set [2] is T1, Staphylococcus aureus NCTC-8325.
T1 construct: NCTC 8325
The data set can be described thus: microbe, parasite or virus in culture. The arrangement: antimicrobial susceptibility assay, MIC, growth inhibition of S. aureus parent strain. Conditions: NCTC8325. The protocol: The ability of S. aureus to develop resistance to BASA was investigated using both spontaneous resistance and serial passage approaches. The S. aureus NCTC 8325 strain was selected due to the availability of a sequenced reference genome for comparative sequence analysis. To measure the rate at which spontaneous resistance develops, 10^9 S. aureus cells were plated onto media containing four times the MIC of BASA. No resistant mutants grew after 24 hours which equates to a calculated resistance frequency of <10^−9 at this inhibitor concentration. BASA resistant S. aureus strains were subsequently generated by the serial passage of seven populations of S. aureus NCTC 8325 in sub-inhibitory concentrations of BASA for 18 days at which time individual colonies were isolated. These were then passaged on non-selective media to verify that the inherited resistance was genetically stable. The sensitivity of the strains to BASA was then established using antimicrobial sensitivity assays (Table 2 and Figure S8A). The isotypic parent strain was highly sensitive to BASA, with an MIC of 0.0625 µg/mL. […] To determine if there was a fitness cost associated with these mutations, in vitro growth curves for the seven strains were analyzed and doubling times calculated (Table 2, Figure S8B). […] To test if the resistance mechanisms identified were specific for BASA, all seven strains were subjected to antibacterial susceptibility assays against a panel of diverse antibiotics that included two known BPL inhibitors, namely biotinol-5′-AMP [32] and BPL223 (compound 4c in [30]). The evolved resistance mechanisms appeared specific to the BPL inhibitors as there was no change in susceptibility to β-lactams amoxicillin and methicillin (Table S1).

Data set [3] has as its target T2, biotin protein ligase (SaBPL-D200E) (Staphylococcus aureus, UniProt A0A3A5LBF0, D200E).
T2 construct: gene birA; recombinant SaBPL-D200E
The data set can be described thus: native nESI-MS of holo protein (monomer). In kind it is binding.

Data set [4] addresses T3, biotin protein ligase (SaBPL) (Staphylococcus aureus, UniProt A0A3A5LBF0).
T3 construct: gene birA; recombinant SaBPL
The data set can be described thus: native nESI-MS of holo protein (homodimer). It counts as binding.

For data set [5], the target named is Staphylococcus aureus biotin protein ligase (SaBPL), wildtype (S. aureus Mu50). The data set can be described thus: native MS; native nESI-MS (Waters Synapt G1 HDMS), holo protein (biotinyl-5'-AMP bound); 10 uM wildtype SaBPL; SaBPL-D200E at 1.4 to 90 uM; monomer to dimer.
Data set [6] deals with O=C(O)CCCC[C@@H]1SC[C@@H]2NC(=O)N[C@@H]21. The data set can be described thus: in vitro protein biotinylation assay, Km. In kind it is biochemical, Staphylococcus aureus. Particulars: MgATP biotin-binding pocket (biotin-binding loop residues […]).
Data set [7] addresses SaBPL (biotin protein ligase, BirA) wild type (Staphylococcus aureus Mu50, UniProt A0A0H3JRH8 1-323). The data set can be described thus: EMSA; 100 uM biotin + MgATP, 2.5% DMSO (control for BASA); EMSA adapted from cited protocols; buffer, salt, pH and temperature not given; BASA or biotin at 100 uM with 2.5% DMSO in the Fig S7 assays. Conditions: protein: recombinant.

Values after ≈ are worked out from the molar mass of the structure shown.

Turning to “biotin protein ligase (SaBPL) (Staphylococcus aureus)”, the Km – broadly, the concentration of substrate that gives half-maximal velocity – in data set [1] turned out to be 1.8 ± 0.3 µM.

For the molecule `Nc1ncnc2c1ncn2[C@@H]1O[C@H](COP(=O)(O)OCCCCC[C@@H]2SC[C@@H]3NC(=O)N[C@@H]32)[C@@H](O)[C@H]1O` [biotinol-5'-AMP, biotinol-5′-AMP], the MIC in data set [2] is 1 µg/mL (≈ 1.79 µM).

As for `Nc1ncnc2c1ncn2[C@@H]1O[C@H](COP(=O)(O)OC(=O)CCCC[C@@H]2SC[C@@H]3NC(=O)N[C@@H]32)[C@@H](O)[C@H]1O` [biotinyl-5′-AMP], the “native nESI-MS of holo protein (monomer)” value in data set [3] is “native nESI–MS provided sufficient mass resolution to confirm the presence of bound biotinyl-5′-AMP”. The “native nESI-MS of holo protein (homodimer)” value in data set [4] was “SaBPL underwent a well-characterized monomer-to-dimer transition induced by biotinyl-5′-AMP (Figure 3A,B)”.

Consider “Staphylococcus aureus biotin protein ligase (SaBPL), wildtype (enzyme)”, for which, in data set [5], the stoichiometry N (commonly a count of units in the complex or per binding partner) stood at 2.

For the molecule `CC1(C)S[C@@H]2[C@H](NC(=O)[C@H](N)c3ccc(O)cc3)C(=O)N2[C@H]1C(=O)O` [amoxicillin], the MIC in data set [2] was found to be 16 µg/mL (≈ 43.8 µM).

On to `COc1cccc(OC)c1C(=O)N[C@@H]1C(=O)N2[C@@H]1SC(C)(C)[C@@H]2C(=O)O` [methicillin], for which the MIC in data set [2] turned out to be 2 µg/mL (≈ 5.26 µM).

“biotin protein ligase (SaBPL-D200E) (Staphylococcus aureus; D200E)”: the Km in data set [6] came to 3.8 ± 0.4 µM.

B1: bioY (dsDNA)
DNA 1: AACTTATTGTAAACTTTTCATTTCTTAAAGTTTACAATGGTGCT
DNA 2: AGCACCATTGTAAACTTTAAGAAATGAAAAGTTTACAATAAGTT
On to B1, for which, in data set [7] (blunt), the binding result is recorded as “binds”.

B2: bioO (dsDNA)
DNA 1: CCTTAAATGTAAACTTTTATAATTAATAAGTTTACATTTAAG
DNA 2: CCTTAAATGTAAACTTATTAATTATAAAAGTTTACATTTAAGG
With B2, the binding result in data set [7] (bottom strand 5' overhang 1 nt as printed (top 42 nt lacks the final G)) is on record as “binds”.
